Data published in US20110166062A1 (INDIANA UNIVERSITY RESEARCH AND TECHNOLOGY, published 2011).
Bridges are numbered along the chain shown (N, C = ends). Where no end group is shown, it is not given here. [ ]: non-standard residue; d: D form. Aib = CC(C)(N)C(=O)O

B1: mt-158 (peptide)
peptide: Y[Aib]QGTFTSDYSIYLDEQAAKEFVCWLLAGGPSSGAPPPS-NH2
modifications: lactam 16-20; N-terminus assumed
SMILES: CC[C@H](C)[C@H](NC(=O)[C@H](CO)NC(=O)[C@H](Cc1ccc(O)cc1)NC(=O)[C@H](CC(=O)O)NC(=O)[C@H](CO)NC(=O)[C@@H](NC(=O)[C@H](Cc1ccccc1)NC(=O)[C@@H](NC(=O)CNC(=O)[C@H](CCC(N)=O)NC(=O)C(C)(C)NC(=O)[C@@H](N)Cc1ccc(O)cc1)[C@@H](C)O)[C@@H](C)O)C(=O)N[C@@H](Cc1ccc(O)cc1)C(=O)N[C@@H](CC(C)C)C(=O)N[C@@H](CC(=O)O)C(=O)N[C@H]1CCC(=O)NCCCC[C@@H](C(=O)N[C@@H](CCC(=O)O)C(=O)N[C@@H](Cc2ccccc2)C(=O)N[C@H](C(=O)N[C@@H](CS)C(=O)N[C@@H](Cc2c[nH]c3ccccc23)C(=O)N[C@@H](CC(C)C)C(=O)N[C@@H](CC(C)C)C(=O)N[C@@H](C)C(=O)NCC(=O)NCC(=O)N2CCC[C@H]2C(=O)N[C@@H](CO)C(=O)N[C@@H](CO)C(=O)NCC(=O)N[C@@H](C)C(=O)N2CCC[C@H]2C(=O)N2CCC[C@H]2C(=O)N2CCC[C@H]2C(=O)N[C@@H](CO)C(N)=O)C(C)C)NC(=O)[C@H](C)NC(=O)[C@H](C)NC(=O)[C@H](CCC(N)=O)NC1=O
B2: mt-156 (peptide)
peptide: YSQGTFTSDYSIYLDEQAAKEFVEWLLAGGPSSGAPPPS-NH2
modifications: lactam 20-24; N-terminus assumed
SMILES: CC[C@H](C)[C@H](NC(=O)[C@H](CO)NC(=O)[C@H](Cc1ccc(O)cc1)NC(=O)[C@H](CC(=O)O)NC(=O)[C@H](CO)NC(=O)[C@@H](NC(=O)[C@H](Cc1ccccc1)NC(=O)[C@@H](NC(=O)CNC(=O)[C@H](CCC(N)=O)NC(=O)[C@H](CO)NC(=O)[C@@H](N)Cc1ccc(O)cc1)[C@@H](C)O)[C@@H](C)O)C(=O)N[C@@H](Cc1ccc(O)cc1)C(=O)N[C@@H](CC(C)C)C(=O)N[C@@H](CC(=O)O)C(=O)N[C@@H](CCC(=O)O)C(=O)N[C@@H](CCC(N)=O)C(=O)N[C@@H](C)C(=O)N[C@@H](C)C(=O)N[C@H]1CCCCNC(=O)CC[C@@H](C(=O)N[C@@H](Cc2c[nH]c3ccccc23)C(=O)N[C@@H](CC(C)C)C(=O)N[C@@H](CC(C)C)C(=O)N[C@@H](C)C(=O)NCC(=O)NCC(=O)N2CCC[C@H]2C(=O)N[C@@H](CO)C(=O)N[C@@H](CO)C(=O)NCC(=O)N[C@@H](C)C(=O)N2CCC[C@H]2C(=O)N2CCC[C@H]2C(=O)N2CCC[C@H]2C(=O)N[C@@H](CO)C(N)=O)NC(=O)[C@H](C(C)C)NC(=O)[C@H](Cc2ccccc2)NC(=O)[C@H](CCC(=O)O)NC1=O
B3: mt-150 (peptide)
peptide: YSQGTFISDYSIYLDEQAAKEFVNWLLAGGPSSGAPPPS-NH2
modifications: lactam 16-20; N-terminus assumed
SMILES: CC[C@H](C)[C@H](NC(=O)[C@H](CO)NC(=O)[C@H](Cc1ccc(O)cc1)NC(=O)[C@H](CC(=O)O)NC(=O)[C@H](CO)NC(=O)[C@@H](NC(=O)[C@H](Cc1ccccc1)NC(=O)[C@@H](NC(=O)CNC(=O)[C@H](CCC(N)=O)NC(=O)[C@H](CO)NC(=O)[C@@H](N)Cc1ccc(O)cc1)[C@@H](C)O)[C@@H](C)CC)C(=O)N[C@@H](Cc1ccc(O)cc1)C(=O)N[C@@H](CC(C)C)C(=O)N[C@@H](CC(=O)O)C(=O)N[C@H]1CCC(=O)NCCCC[C@@H](C(=O)N[C@@H](CCC(=O)O)C(=O)N[C@@H](Cc2ccccc2)C(=O)N[C@H](C(=O)N[C@@H](CC(N)=O)C(=O)N[C@@H](Cc2c[nH]c3ccccc23)C(=O)N[C@@H](CC(C)C)C(=O)N[C@@H](CC(C)C)C(=O)N[C@@H](C)C(=O)NCC(=O)NCC(=O)N2CCC[C@H]2C(=O)N[C@@H](CO)C(=O)N[C@@H](CO)C(=O)NCC(=O)N[C@@H](C)C(=O)N2CCC[C@H]2C(=O)N2CCC[C@H]2C(=O)N2CCC[C@H]2C(=O)N[C@@H](CO)C(N)=O)C(C)C)NC(=O)[C@H](C)NC(=O)[C@H](C)NC(=O)[C@H](CCC(N)=O)NC1=O
B4: mt-157 (peptide)
peptide: YSQGTFTSDYSIYLDEQAAKEFVEWLLKGGPSSGAPPPS-NH2
modifications: lactam 24-28; N-terminus assumed
SMILES: CC[C@H](C)[C@H](NC(=O)[C@H](CO)NC(=O)[C@H](Cc1ccc(O)cc1)NC(=O)[C@H](CC(=O)O)NC(=O)[C@H](CO)NC(=O)[C@@H](NC(=O)[C@H](Cc1ccccc1)NC(=O)[C@@H](NC(=O)CNC(=O)[C@H](CCC(N)=O)NC(=O)[C@H](CO)NC(=O)[C@@H](N)Cc1ccc(O)cc1)[C@@H](C)O)[C@@H](C)O)C(=O)N[C@@H](Cc1ccc(O)cc1)C(=O)N[C@@H](CC(C)C)C(=O)N[C@@H](CC(=O)O)C(=O)N[C@@H](CCC(=O)O)C(=O)N[C@@H](CCC(N)=O)C(=O)N[C@@H](C)C(=O)N[C@@H](C)C(=O)N[C@@H](CCCCN)C(=O)N[C@@H](CCC(=O)O)C(=O)N[C@@H](Cc1ccccc1)C(=O)N[C@H](C(=O)N[C@H]1CCC(=O)NCCCC[C@@H](C(=O)NCC(=O)NCC(=O)N2CCC[C@H]2C(=O)N[C@@H](CO)C(=O)N[C@@H](CO)C(=O)NCC(=O)N[C@@H](C)C(=O)N2CCC[C@H]2C(=O)N2CCC[C@H]2C(=O)N2CCC[C@H]2C(=O)N[C@@H](CO)C(N)=O)NC(=O)[C@H](CC(C)C)NC(=O)[C@H](CC(C)C)NC(=O)[C@H](Cc2c[nH]c3ccccc23)NC1=O)C(C)C
B5: mt-152 (peptide)
peptide: Y[Aib]QGTFTSDYSIYLDEQAAKEFVNWLLAGGPSSGAPPPS-NH2
modifications: lactam 16-20; N-terminus assumed
SMILES: CC[C@H](C)[C@H](NC(=O)[C@H](CO)NC(=O)[C@H](Cc1ccc(O)cc1)NC(=O)[C@H](CC(=O)O)NC(=O)[C@H](CO)NC(=O)[C@@H](NC(=O)[C@H](Cc1ccccc1)NC(=O)[C@@H](NC(=O)CNC(=O)[C@H](CCC(N)=O)NC(=O)C(C)(C)NC(=O)[C@@H](N)Cc1ccc(O)cc1)[C@@H](C)O)[C@@H](C)O)C(=O)N[C@@H](Cc1ccc(O)cc1)C(=O)N[C@@H](CC(C)C)C(=O)N[C@@H](CC(=O)O)C(=O)N[C@H]1CCC(=O)NCCCC[C@@H](C(=O)N[C@@H](CCC(=O)O)C(=O)N[C@@H](Cc2ccccc2)C(=O)N[C@H](C(=O)N[C@@H](CC(N)=O)C(=O)N[C@@H](Cc2c[nH]c3ccccc23)C(=O)N[C@@H](CC(C)C)C(=O)N[C@@H](CC(C)C)C(=O)N[C@@H](C)C(=O)NCC(=O)NCC(=O)N2CCC[C@H]2C(=O)N[C@@H](CO)C(=O)N[C@@H](CO)C(=O)NCC(=O)N[C@@H](C)C(=O)N2CCC[C@H]2C(=O)N2CCC[C@H]2C(=O)N2CCC[C@H]2C(=O)N[C@@H](CO)C(N)=O)C(C)C)NC(=O)[C@H](C)NC(=O)[C@H](C)NC(=O)[C@H](CCC(N)=O)NC1=O

biological target: glucagon receptor (UniProt P47871 26-477, limits assumed); assay: cell-based or functional assay
Sequence (P47871 26-477 limits assumed): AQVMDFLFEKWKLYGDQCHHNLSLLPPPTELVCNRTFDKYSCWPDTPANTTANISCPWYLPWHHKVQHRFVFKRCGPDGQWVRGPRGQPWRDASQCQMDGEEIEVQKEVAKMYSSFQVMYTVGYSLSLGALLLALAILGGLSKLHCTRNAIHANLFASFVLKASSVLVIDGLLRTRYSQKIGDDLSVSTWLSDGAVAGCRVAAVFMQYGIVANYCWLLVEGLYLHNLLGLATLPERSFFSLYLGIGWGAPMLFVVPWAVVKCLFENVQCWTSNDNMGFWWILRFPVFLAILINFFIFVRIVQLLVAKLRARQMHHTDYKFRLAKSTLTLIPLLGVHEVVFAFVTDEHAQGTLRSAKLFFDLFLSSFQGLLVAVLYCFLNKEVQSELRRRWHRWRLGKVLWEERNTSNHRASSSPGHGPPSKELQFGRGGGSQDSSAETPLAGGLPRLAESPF

Q: With B1 as the binder, how does the “EC50” value read?
A: The value was 1.05 nM.

Q: And the relative activity?
A: Its relative activity is 14.9%.

Q: Which results are given for B2?
A: EC50: 2.96 nM; relative activity: 6.1%

Q: Which results are given for B3?
A: EC50: 0.036 nM; relative activity: 317%

Q: Which results are given for B4?
A: EC50: 2.62 nM; relative activity: 6.92%

Q: How did the “EC50” value turn out when B5 was run?
A: Its value is 0.293 nM.

Q: And the relative activity?
A: The relative activity was 36.5%.

biological target: GLP-1 receptor (UniProt P43220 24-463, limits assumed); assay: cell-based or functional assay

Q: Which “EC50” value does the source give for B1 here?
A: Its value is 0.034 nM.

Q: And the relative activity?
A: Its relative activity is 103%.

Q: What does the source list for B2?
A: EC50: 0.246 nM; relative activity: 12.2%

Q: What does the source list for B3?
A: EC50: 3.47 nM; relative activity: 1.09%

Q: With B4 as the binder, how does the “EC50” value read?
A: Its value is 0.081 nM.

Q: And the relative activity?
A: The relative activity was 37%.

Q: B5 was tested. Which “EC50” value did it give?
A: Its value is 0.016 nM.

Q: And the relative activity?
A: The relative activity was 169%.

biological target: T1, GIP receptor (UniProt P48546 22-466); assay: cell-based or functional assay
T1 sequence (looked up): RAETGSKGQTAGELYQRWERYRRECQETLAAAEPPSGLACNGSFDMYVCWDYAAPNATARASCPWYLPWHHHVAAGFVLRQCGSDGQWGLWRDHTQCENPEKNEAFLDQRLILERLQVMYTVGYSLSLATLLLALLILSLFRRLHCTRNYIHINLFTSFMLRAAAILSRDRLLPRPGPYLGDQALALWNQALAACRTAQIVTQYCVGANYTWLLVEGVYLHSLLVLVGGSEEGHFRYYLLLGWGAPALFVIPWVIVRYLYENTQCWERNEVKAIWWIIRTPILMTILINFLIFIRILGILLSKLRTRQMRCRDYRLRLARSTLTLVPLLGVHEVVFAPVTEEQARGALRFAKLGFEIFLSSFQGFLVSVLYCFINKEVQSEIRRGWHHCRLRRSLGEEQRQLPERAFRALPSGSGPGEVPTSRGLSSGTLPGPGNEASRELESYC

Q: Which “EC50” value does the source give for B1 here?
A: Its value is 0.174 nM.

Q: What about the relative activity of the same binder?
A: The relative activity was 17.8%.

Q: How did the “EC50” value turn out when B2 was run?
A: Its value is 0.919 nM.

Q: And the relative activity?
A: Its relative activity is 4.41%.

Q: Which results are given for B3?
A: EC50: 0.232 nM; relative activity: 26.7%

Q: How did the “EC50” value turn out when B4 was run?
A: Its value is 1.01 nM.

Q: What about the relative activity of the same binder?
A: Its relative activity is 4%.

Q: How did the “EC50” value turn out when B5 was run?
A: Its value is 0.087 nM.

Q: And the relative activity?
A: Its relative activity is 41.2%.
